Data published in patent US20220064263A1 (published 2022).

T1: canine IL4 (canine, UniProt O77762 25-132, biotinylated (site not stated))
T1 construct: Biotinylated and captured on streptavidin sensor tips
T1 sequence (looked up): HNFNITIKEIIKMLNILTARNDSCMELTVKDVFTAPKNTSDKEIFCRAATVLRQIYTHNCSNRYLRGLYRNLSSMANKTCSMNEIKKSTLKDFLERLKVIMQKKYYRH


Legend:
human C1q = target: T2, human C1q (human, UniProt P02745 23-245; P02746 28-253; P02747 29-245); experiment: biosensor; fusion captured on IL4-bound tips, human C1q at 250 µg/mL
T2 construct: Bought protein complex; the three subunit chains come from general knowledge; also called C1q complex
T2 sequence (P02745 23-245 limits assumed, chain 1 of 3): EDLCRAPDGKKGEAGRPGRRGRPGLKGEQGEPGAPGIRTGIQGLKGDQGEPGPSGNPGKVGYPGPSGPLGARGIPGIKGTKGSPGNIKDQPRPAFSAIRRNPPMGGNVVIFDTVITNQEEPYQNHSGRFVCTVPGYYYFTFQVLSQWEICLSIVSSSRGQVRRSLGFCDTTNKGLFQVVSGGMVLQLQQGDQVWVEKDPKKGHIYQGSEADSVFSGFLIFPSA
T2 sequence (P02746 28-253 limits assumed, chain 2 of 3): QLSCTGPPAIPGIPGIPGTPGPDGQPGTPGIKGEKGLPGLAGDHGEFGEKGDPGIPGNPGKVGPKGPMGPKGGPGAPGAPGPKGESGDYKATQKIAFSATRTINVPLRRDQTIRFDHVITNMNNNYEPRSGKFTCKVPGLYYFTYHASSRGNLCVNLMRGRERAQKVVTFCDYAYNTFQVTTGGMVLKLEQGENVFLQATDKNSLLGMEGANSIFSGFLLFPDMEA
T2 sequence (P02747 29-245 limits assumed, chain 3 of 3): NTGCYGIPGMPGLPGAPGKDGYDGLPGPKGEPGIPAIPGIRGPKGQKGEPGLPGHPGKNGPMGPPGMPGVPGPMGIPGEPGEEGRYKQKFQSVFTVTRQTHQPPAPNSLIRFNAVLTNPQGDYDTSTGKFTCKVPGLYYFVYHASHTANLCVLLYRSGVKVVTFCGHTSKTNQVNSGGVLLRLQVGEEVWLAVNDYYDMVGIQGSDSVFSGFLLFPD
Protocol: (§1) A biosensor binding analysis was performed to determine the binding affinity of C1q to IL13R(ECD)-IL4R(ECD)-wild type canine IgG-B Fc (SEQ ID NO: 271) compared to IL13R(ECD)-IL4R(ECD)-variant canine IgG-B Fc (SEQ ID NO: 202). Briefly canine IL4 was biotinylated and captured to streptavidin sensor tips. Either IL13R(ECD)-IL4R(ECD)-wild type canine IgG-B Fc (25 μg/mL) or IL13R(ECD)-IL4R(ECD)-variant canine IgG-B Fc (25 μg/mL) was complexed to the IL4-bound biosensors. Subsequently, the complex was used to bind human C1q at 250 μg/mL (Catalog No. 204876-1MG; Sigma Aldrich). The ability of human C1q to bind either complex was measured. Reduced binding between human C1q and IL13R(ECD)-IL4R(ECD)-variant canine IgG-B Fc was observed when compared to IL13R(ECD)-IL4R(ECD)-wild type canine IgG-B Fc.

canine IL4 = target: T1, canine IL4; experiment: biosensor; biotinylated canine IL4 on streptavidin tips, fusion at 25 µg/mL
Protocol: as §1

Row | binding result (human C1q) | binding result (canine IL4) | Binder
1 | binds | binds | IL13R(ECD)-IL4R(ECD)-wild type canine IgG-B Fc (Fc fusion, also called fusion protein comprising wild-type canine IgG-B Fc) TETQPPVTNLSVSVENLCTVIWTWDPPEGASPNCTLRYFSHFDNKQDKKIAPETHRSKEVPLNERICLQVGSQCSTNESDNPSILVEKCTPPPEGDPESAVTELQCVWHNLSYMKCTWLPGRNTSPDTNYTLYYWHSSLGKILQCEDIYREGQHIGCSFALTNLKDSSFEQHSVQIVVKDNAGKIRPSFNIVPLTSHVKPDPPHIKRLFFQNGNLYVQWKNPQNFYSRCLSYQVEVNNSQTETNDIFYVEEAKCQNSEFEGNLEGTICFMVPGVLPDTLNTVRIRVRTNKLCYEDDKLWSNWSQAMSIGENTDPTGGGSGSGSVKVLHEPSCFSDYISTSVCQWKMDHPTNCSAELRLSYQLDFMGSENHTCVPENREDSVCVCSMPIDDAVEADVYQLDLWAGQQLLWSGSFQPSKHVKPRTPGNLTVHPNISHTWLLMWTNPYPTENHLHSELTYMVNVSNDNDPEDFKVYNVTYMGPTLRLAASTLKSGASYSARVRAWAQTYNSTWSDWSPSTTWLNYYEPKRENGRVPRPPDCPKCPAPEMLGGPSVFIFPPKPKDTLLIARTPEVTCVVVDLDPEDPEVQISWFVDGKQMQTAKTQPREEQFNGTYRVVSVLPIGHQDWLKGKQFTCKVNNKALPSPIERTISKARGQAHQPSVYVLPPSREELSKNTVSLTCLIKDFFPPDIDVEWQSNGQQEPESKYRTTPPQLDEDGSYFLYSKLSVDKSRWQRGDTFICAVMHEALHNHYTQESLSHSPGK
2 | binds | binds | IL13R(ECD)-IL4R(ECD)-variant canine IgG-B Fc (Fc fusion, also called fusion protein comprising variant canine IgG-B Fc K(93)R) TETQPPVTNLSVSVENLCTVIWTWDPPEGASPNCTLRYFSHFDNKQDKKIAPETHRSKEVPLNERICLQVGSQCSTNESDNPSILVEKCTPPPEGDPESAVTELQCVWHNLSYMKCTWLPGRNTSPDTNYTLYYWHSSLGKILQCEDIYREGQHIGCSFALTNLKDSSFEQHSVQIVVKDNAGKIRPSFNIVPLTSHVKPDPPHIKRLFFQNGNLYVQWKNPQNFYSRCLSYQVEVNNSQTETNDIFYVEEAKCQNSEFEGNLEGTICFMVPGVLPDTLNTVRIRVRTNKLCYEDDKLWSNWSQAMSIGENTDPTGGGSGSGSVKVLHEPSCFSDYISTSVCQWKMDHPTNCSAELRLSYQLDFMGSENHTCVPENREDSVCVCSMPIDDAVEADVYQLDLWAGQQLLWSGSFQPSKHVKPRTPGNLTVHPNISHTWLLMWTNPYPTENHLHSELTYMVNVSNDNDPEDFKVYNVTYMGPTLRLAASTLKSGASYSARVRAWAQTYNSTWSDWSPSTTWLNYYEPKRENGRVPRPPDCPKCPAPEMLGGPSVFIFPPKPKDTLLIARTPEVTCVVVDLDPEDPEVQISWFVDGKQMQTAKTQPREEQFNGTYRVVSVLPIGHQDWLKGKQFTCRVNNKALPSPIERTISKARGQAHQPSVYVLPPSREELSKNTVSLTCLIKDFFPPDIDVEWQSNGQQEPESKYRTTPPQLDEDGSYFLYSKLSVDKSRWQRGDTFICAVMHEALHNHYTQESLSHSPGK
